Data published in IntAct's records for PubMed 25910212.

B1: Mothers against decapentaplegic homolog 3 (Homo sapiens), P84022 (parent)
chain: MSSILPFTPPIVKRLLGWKKGEQNGQEEKWCEKAVKSLVKKLKKTGQLDELEKAITTQNVNTKCITIPRSLDGRLQVSHRKGLPHVIYCRLWRWPDLHSHHELRAMELCEFAFNMKKDEVCVNPYHYQRVETPVLPPVLVPRHTEIPAEFPPLDDYSHSIPENTNFPAGIEPQSNIPETPPPGYLSEDGETSDHQMNHSMDAGSPNLSPNPMSPAHNNLDLQPVTYCEPAFWCSISYYELNQRVGETFHASQPSMTVDGFTDPSNSERFCLGLLSNVNRNAAVELTRRHIGRGVRLYYIGGEVFAECLSDSAIFVQSPNCNQRYGWHPATVCKIPPGCNLKIFNNQEFAALLAQSVNQGFEAVYQLTRMCTIRMSFVKGWGAEYRRQTVTSTPCWIELHLNGPLQWLDKVLTQMGSPSIRCSSVS
partner: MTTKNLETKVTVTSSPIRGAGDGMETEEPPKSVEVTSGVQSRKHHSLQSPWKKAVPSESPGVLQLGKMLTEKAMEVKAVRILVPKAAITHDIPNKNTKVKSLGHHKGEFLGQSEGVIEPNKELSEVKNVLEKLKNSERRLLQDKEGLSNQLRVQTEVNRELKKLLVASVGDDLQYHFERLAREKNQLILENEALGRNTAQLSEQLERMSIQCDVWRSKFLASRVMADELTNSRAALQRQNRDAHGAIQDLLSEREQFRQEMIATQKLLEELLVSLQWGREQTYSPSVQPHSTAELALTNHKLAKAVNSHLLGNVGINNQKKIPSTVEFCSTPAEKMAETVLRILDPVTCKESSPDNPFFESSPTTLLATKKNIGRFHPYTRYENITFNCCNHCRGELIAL
B2: U4/U6 small nuclear ribonucleoprotein Prp31 (Homo sapiens), Q8WWY3 (parent)
chain: MSLADELLADLEEAAEEEEGGSYGEEEEEPAIEDVQEETQLDLSGDSVKTIAKLWDSKMFAEIMMKIEEYISKQAKASEVMGPVEAAPEYRVIVDANNLTVEIENELNIIHKFIRDKYSKRFPELESLVPNALDYIRTVKELGNSLDKCKNNENLQQILTNATIMVVSVTASTTQGQQLSEEELERLEEACDMALELNASKHRIYEYVESRMSFIAPNLSIIIGASTAAKIMGVAGGLTNLSKMPACNIMLLGAQRKTLSGFSSTSVLPHTGYIYHSDIVQSLPPDLRRKAARLVAAKCTLAARVDSFHESTEGKVGYELKDEIERKFDKWQEPPPVKQVKPLPAPLDGQRKKRGGRRYRKMKERLGLTEIRKQANRMSFGEIEEDAYQEDLGFSLGHLGKSGSGRVRQTQVNEATKARISKTLQRTLQKQSVVYGGKSTIRDRSSGTASSVAFTPLQGLEIVNPQAAEKKVAEANQKYFSSMAEFLKVKGEKSGLMST
partner: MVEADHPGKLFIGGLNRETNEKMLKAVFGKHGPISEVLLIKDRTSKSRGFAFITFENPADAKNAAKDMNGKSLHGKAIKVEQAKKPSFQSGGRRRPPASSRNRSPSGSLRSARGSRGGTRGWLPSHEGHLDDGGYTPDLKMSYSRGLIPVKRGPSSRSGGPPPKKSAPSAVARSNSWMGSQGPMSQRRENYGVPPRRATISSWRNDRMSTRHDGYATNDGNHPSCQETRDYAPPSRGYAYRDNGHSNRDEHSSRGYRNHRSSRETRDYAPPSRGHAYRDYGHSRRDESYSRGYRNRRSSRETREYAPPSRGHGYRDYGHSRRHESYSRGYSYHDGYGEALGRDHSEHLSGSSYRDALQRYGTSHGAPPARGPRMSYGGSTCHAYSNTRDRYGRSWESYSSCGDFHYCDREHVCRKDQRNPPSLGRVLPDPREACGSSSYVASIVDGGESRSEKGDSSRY
B3: U4/U6 small nuclear ribonucleoprotein Prp31 (Homo sapiens), Q8WWY3 (parent)
chain: B2 chain
partner: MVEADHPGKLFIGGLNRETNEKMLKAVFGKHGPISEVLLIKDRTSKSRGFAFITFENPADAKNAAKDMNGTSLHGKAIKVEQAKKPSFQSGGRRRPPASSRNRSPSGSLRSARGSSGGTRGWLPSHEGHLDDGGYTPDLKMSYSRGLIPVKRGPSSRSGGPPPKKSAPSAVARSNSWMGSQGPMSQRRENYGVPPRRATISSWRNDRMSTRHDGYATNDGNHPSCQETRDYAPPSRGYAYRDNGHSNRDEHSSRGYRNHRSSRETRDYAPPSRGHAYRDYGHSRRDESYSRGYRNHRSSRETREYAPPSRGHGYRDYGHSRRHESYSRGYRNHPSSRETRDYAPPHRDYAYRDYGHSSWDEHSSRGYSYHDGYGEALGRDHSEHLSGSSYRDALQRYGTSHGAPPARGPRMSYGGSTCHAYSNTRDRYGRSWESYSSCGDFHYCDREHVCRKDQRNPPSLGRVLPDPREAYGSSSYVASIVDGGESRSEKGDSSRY
B4: CD151 antigen (Homo sapiens), P48509 (parent)
chain: MGEFNEKKTTCGTVCLKYLLFTYNCCFWLAGLAVMAVGIWTLALKSDYISLLASGTYLATAYILVVAGTVVMVTGVLGCCATFKERRNLLRLYFILLLIIFLLEIIAGILAYAYYQQLNTELKENLKDTMTKRYHQPGHEAVTSAVDQLQQEFHCCGSNNSQDWRDSEWIRSQEAGGRVVPDSCCKTVVALCGQRDHASNIYKVEGGCITKLETFIQEHLRVIGAVGIGIACVQVFGMIFTCCLYRSLKLEHY
B5: ATP synthase mitochondrial F1 complex assembly factor 2 (Homo sapiens), Q8N5M1 (parent)
chain: MWRSCLRLRDGGRRLLNRPAGGPSASMSPGPTIPSPARAYAPPTERKRFYQNVSITQGEGGFEINLDHRKLKTPQAKLFTVPSEALAIAVATEWDSQQDTIKYYTMHLTTLCNTSLDNPTQRNKDQLIRAAVKFLDTDTICYRVEEPETLVELQRNEWDPIIEWAEKRYGVEISSSTSIMGPSIPAKTREVLVSHLASYNTWALQGIEFVAAQLKSMVLTLGLIDLRLTVEQAVLLSRLEEEYQIQKWGNIEWAHDYELQELRARTAAGTLFIHLCSESTTVKHKLLKE
partner: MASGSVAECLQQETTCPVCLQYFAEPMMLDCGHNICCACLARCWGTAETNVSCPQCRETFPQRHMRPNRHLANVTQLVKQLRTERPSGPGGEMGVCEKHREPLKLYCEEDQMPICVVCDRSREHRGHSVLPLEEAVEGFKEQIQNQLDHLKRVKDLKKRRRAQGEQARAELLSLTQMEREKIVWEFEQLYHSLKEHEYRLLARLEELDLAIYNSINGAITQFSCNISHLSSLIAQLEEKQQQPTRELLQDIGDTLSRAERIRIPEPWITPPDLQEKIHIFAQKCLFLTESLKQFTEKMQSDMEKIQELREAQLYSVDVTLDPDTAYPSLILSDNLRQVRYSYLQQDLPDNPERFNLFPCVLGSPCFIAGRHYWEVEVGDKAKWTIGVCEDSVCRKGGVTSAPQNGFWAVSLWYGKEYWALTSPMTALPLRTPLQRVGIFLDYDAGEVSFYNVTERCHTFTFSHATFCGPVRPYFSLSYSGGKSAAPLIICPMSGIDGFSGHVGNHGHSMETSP
B6: U4/U6 small nuclear ribonucleoprotein Prp3 (Homo sapiens), O43395 (parent)
chain: MALSKRELDELKPWIEKTVKRVLGFSEPTVVTAALNCVGKGMDKKKAADHLKPFLDDSTLRFVDKLFEAVEEGRSSRHSKSSSDRSRKRELKEVFGDDSEISKESSGVKKRRIPRFEEVEEEPEVIPGPPSESPGMLTKLQIKQMMEAATRQIEERKKQLSFISPPTPQPKTPSSSQPERLPIGNTIQPSQAATFMNDAIEKARKAAELQARIQAQLALKPGLIGNANMVGLANLHAMGIAPPKVELKDQTKPTPLILDEQGRTVDATGKEIELTHRMPTLKANIRAVKREQFKQQLKEKPSEDMESNTFFDPRVSIAPSQRQRRTFKFHDKGKFEKIAQRLRTKAQLEKLQAEISQAARKTGIHTSTRLALIAPKKELKEGDIPEIEWWDSYIIPNGFDLTEENPKREDYFGITNLVEHPAQLNPPVDNDTPVTLGVYLTKKEQKKLRRQTRREAQKELQEKVRLGLMPPPEPKVRISNLMRVLGTEAVQDPTKVEAHVRAQMAKRQKAHEEANAARKLTAEQRKVKKIKKLKEDISQGVHISVYRVRNLSNPAKKFKIEANAGQLYLTGVVVLHKDVNVVVVEGGPKAQKKFKRLMLHRIKWDEQTSNTKGDDDEESDEEAVKKTNKCVLVWEGTAKDRSFGEMKFKQCPTENMAREHFKKHGAEHYWDLALSESVLESTD
partner: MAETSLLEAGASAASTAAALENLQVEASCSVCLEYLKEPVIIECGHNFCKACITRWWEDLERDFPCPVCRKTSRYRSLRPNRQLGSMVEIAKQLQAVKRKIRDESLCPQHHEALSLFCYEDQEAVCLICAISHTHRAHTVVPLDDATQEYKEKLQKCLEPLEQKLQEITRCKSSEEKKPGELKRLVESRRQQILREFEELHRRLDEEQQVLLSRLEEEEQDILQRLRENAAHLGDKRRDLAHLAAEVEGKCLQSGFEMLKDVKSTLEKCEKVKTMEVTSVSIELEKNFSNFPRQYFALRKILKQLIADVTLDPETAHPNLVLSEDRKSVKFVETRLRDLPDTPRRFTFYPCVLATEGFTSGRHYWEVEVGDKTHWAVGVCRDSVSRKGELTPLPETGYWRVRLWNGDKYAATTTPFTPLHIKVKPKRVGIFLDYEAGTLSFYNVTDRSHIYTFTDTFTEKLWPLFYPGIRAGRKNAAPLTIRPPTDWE
B7: Keratin, type I cytoskeletal 18 (Homo sapiens), P05783 (parent)
chain: MSFTTRSTFSTNYRSLGSVQAPSYGARPVSSAASVYAGAGGSGSRISVSRSTSFRGGMGSGGLATGIAGGLAGMGGIQNEKETMQSLNDRLASYLDRVRSLETENRRLESKIREHLEKKGPQVRDWSHYFKIIEDLRAQIFANTVDNARIVLQIDNARLAADDFRVKYETELAMRQSVENDIHGLRKVIDDTNITRLQLETEIEALKEELLFMKKNHEEEVKGLQAQIASSGLTVEVDAPKSQDLAKIMADIRAQYDELARKNREELDKYWSQQIEESTTVVTTQSAEVGAAETTLTELRRTVQSLEIDLDSMRNLKASLENSLREVEARYALQMEQLNGILLHLESELAQTRAEGQRQAQEYEALLNIKVKLEAEIATYRRLLEDGEDFNLGDALDSSNSMQTIQKTTTRRIVDGKVVSETNDTKVLRH

Variants of: B1
Conditions: with go45_human BLZF1, Q9H2G9

Row | effect of a mutation on the interaction | Variant
1 | with no effect | N197I

Variants of: B2
Conditions: with RBMY1A1, P0DJD3-2

Row | effect of a mutation on the interaction | Variant
2 | with no effect | L107V

Variants of: B3
Conditions: with rby1f_human RBMY1F

Row | effect of a mutation on the interaction | Variant
3 | with no effect | L107V

Variants of: B4
Conditions: with astrc_human GRAMD1C

Row | effect of a mutation on the interaction | Variant
4 | with no effect | R178H
5 | disrupting interaction strength | R171C

Variants of: B5
Conditions: with tri27_human TRIM27, P14373

Row | effect of a mutation on the interaction | Variant
6 | disrupting interaction strength | W94R

Variants of: B6
Conditions: with TRIM39, Q9HCM9-2

Row | effect of a mutation on the interaction | Variant
7 | disrupting interaction strength | T494M
8 | disrupting interaction strength | P493S
9 | disrupting interaction strength | A489D

Variants of: B7
Conditions: with goga2_human GOLGA2, Q08379
Chain of goga2_human GOLGA2, Q08379 (Q08379 whole entry): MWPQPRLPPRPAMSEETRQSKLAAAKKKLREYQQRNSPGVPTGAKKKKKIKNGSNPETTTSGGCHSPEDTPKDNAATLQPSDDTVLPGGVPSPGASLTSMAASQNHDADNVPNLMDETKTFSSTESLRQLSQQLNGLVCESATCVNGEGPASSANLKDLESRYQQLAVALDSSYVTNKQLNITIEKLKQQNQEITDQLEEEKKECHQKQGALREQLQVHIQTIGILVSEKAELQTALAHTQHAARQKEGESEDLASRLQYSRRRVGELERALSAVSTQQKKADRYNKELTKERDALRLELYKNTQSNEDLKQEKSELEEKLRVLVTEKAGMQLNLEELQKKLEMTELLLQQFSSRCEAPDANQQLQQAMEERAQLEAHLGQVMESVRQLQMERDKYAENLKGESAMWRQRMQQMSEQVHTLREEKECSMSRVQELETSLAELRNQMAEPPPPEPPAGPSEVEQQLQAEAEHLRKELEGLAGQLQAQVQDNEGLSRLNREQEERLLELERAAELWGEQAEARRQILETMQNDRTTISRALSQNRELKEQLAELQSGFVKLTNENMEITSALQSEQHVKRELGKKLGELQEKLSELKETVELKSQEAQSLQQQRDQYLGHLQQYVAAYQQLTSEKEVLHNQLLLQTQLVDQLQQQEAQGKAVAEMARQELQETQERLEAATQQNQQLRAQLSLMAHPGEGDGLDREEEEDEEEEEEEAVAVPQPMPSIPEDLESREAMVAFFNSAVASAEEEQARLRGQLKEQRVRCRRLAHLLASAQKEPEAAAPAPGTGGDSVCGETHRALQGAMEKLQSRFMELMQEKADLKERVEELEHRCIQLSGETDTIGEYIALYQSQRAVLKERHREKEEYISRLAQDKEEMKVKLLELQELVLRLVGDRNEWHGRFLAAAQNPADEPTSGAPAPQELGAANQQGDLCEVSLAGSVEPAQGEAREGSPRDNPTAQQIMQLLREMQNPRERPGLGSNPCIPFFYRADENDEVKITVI

Row | Variant | effect of a mutation on the interaction
10 | T103A | disrupting interaction strength
11 | G340R | disrupting interaction strength

Results, then the variant that gave them:

Row | effect of a mutation on the interaction | Variant
12 | disrupting interaction strength | Q285R
13 | with no effect | H128L

Variants of: B7
Conditions: with hgs_human HGS

Row | Variant | effect of a mutation on the interaction
14 | T103A | disrupting interaction strength
15 | G340R | disrupting interaction strength

Other lines, results leading:

Row | effect of a mutation on the interaction | Variant
16 | disrupting interaction strength | Q285R
17 | with no effect | H128L

Variants of: B7
Conditions: with syce1_human SYCE1, Q8N0S2
Chain of syce1_human SYCE1, Q8N0S2 (Q8N0S2 whole entry): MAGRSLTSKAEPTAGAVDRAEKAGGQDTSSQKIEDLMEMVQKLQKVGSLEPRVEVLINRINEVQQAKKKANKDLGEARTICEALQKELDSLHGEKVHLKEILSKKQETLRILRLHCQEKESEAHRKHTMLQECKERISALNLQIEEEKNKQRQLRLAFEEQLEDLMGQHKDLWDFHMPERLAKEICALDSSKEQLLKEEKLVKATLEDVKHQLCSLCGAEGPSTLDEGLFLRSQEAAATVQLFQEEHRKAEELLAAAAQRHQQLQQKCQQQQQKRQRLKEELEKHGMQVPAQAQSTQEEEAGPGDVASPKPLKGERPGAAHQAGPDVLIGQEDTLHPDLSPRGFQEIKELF

Row | Variant | effect of a mutation on the interaction
18 | T103A | disrupting interaction strength
19 | G340R | with no effect

The next lines start with the values.

Row | effect of a mutation on the interaction | Variant
20 | with no effect | Q285R
21 | with no effect | H128L
